Experimental findings from patent publication US20150374845A1 are described below.

Common to all, as to assay: cell-based or functional assay
Assay [1] concerns the target beta1 integrin on mammary epithelial cells (MECs) (UniProt P09055).
Assay [2] deals with hypoglycosylated dystroglycan of vector-infected MDA-MB-231 human breast cancer cells and LN18 human glioma cells (human) (UniProt Q14118).
For assay [3], the target named is glycosylated dystroglycan of LARGE-expressing MDA-MB-231 human breast cancer cells and LN18 human glioma cells (human) (UniProt Q14118).
For assay [4], the target named is human dystroglycan (WT DG) expressed by retrovirus in DG-knockout MEpG mammary epithelial cells (human) (UniProt Q14118).
The target of assay [5] is wild type human beta1 integrin re-expressed by retrovirus in beta1 integrin-knockout E3D1cre19 MECs (human) (UniProt P05556).
wild type human beta1 integrin re-expressed by retrovirus in beta1 integrin-knockout E3D1cre19 MECs (human), sequence (P05556 21-798): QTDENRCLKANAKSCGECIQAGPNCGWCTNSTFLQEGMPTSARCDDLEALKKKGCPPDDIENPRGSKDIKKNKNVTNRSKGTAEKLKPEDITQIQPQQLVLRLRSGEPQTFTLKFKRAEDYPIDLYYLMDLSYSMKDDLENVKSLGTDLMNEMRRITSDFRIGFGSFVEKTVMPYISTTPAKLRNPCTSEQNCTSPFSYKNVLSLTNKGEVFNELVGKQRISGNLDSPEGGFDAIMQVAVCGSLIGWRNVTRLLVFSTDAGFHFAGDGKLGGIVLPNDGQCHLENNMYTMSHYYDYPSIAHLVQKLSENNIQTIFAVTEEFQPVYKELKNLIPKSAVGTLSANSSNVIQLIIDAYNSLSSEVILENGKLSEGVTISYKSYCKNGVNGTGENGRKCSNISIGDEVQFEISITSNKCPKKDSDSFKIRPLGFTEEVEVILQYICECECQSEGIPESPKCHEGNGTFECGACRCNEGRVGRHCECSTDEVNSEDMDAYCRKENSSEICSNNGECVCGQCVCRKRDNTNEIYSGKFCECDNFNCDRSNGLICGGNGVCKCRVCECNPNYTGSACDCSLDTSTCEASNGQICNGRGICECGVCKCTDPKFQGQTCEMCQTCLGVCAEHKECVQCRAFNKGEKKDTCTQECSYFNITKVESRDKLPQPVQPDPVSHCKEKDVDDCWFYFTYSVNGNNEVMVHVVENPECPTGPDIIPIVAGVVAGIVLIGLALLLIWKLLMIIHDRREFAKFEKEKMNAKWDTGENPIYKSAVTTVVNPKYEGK

beta1 integrin on mammary epithelial cells (MECs), sequence (P09055 21-798 limits assumed): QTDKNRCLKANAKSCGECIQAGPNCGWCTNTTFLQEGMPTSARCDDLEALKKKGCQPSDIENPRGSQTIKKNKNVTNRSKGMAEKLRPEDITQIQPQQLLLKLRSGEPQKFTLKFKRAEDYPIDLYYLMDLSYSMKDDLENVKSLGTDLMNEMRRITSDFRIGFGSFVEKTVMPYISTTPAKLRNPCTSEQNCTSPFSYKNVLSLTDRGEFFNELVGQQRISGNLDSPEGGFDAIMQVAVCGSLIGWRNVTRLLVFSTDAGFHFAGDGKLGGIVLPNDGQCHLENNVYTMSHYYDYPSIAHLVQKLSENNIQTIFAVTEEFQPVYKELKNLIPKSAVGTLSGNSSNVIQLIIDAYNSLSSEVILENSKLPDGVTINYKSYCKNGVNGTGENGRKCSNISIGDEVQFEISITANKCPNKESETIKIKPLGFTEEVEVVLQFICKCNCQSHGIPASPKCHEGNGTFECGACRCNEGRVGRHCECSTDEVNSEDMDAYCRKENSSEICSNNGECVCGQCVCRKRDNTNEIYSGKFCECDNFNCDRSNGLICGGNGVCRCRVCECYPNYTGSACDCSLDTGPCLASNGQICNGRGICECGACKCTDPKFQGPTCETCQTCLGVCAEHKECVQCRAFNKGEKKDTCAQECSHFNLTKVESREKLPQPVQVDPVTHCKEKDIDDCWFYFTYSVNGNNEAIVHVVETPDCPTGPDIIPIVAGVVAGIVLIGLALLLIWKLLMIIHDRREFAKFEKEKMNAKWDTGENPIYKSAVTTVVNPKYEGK

As to Hat2/5 antibody, the Ln internalization, cellular fluorescence intensity of Rhod-Ln by flow cytometry, normalized to Ln alone control in assay [1] was 36 % decrease.

For the substance “rhodamine-labeled laminin-111 (from UniProt P19137 25-3083; P02469 22-1786; P02468 34-1607) (ligand)”, in assay [2], the MFI of internalized Rhod-Ln, flow cytometry, LN18 cells came to 0.145 MFI and the MFI of internalized Rhod-Ln, flow cytometry, MDA-MB-231 cells stood at 0.1 MFI.

In assay [3], “rhodamine-labeled laminin-111, P19137 25-3083; P02469 22-1786; P02468 34-1607” gave an MFI of internalized Rhod-Ln, flow cytometry, LN18 cells of 1.49 MFI; an MFI of internalized Rhod-Ln, flow cytometry, MDA-MB-231 cells of 6.82 MFI; an increase in MFI of internalized laminin, LARGE-expressing against vector LN18 cells of 10 fold; an increase in MFI of internalized laminin, LARGE-expressing against vector MDA-MB-231 cells of 68 fold. In assay [4], this substance had a compiled MFI of internalized Rhod-Ln, DG-expressing against DG-lacking MEpG cells of 4 fold; a compiled mean fluorescence intensity (MFI) of internalized Rhod-Ln, flow cytometry, MEpG cells of 18 MFI; a laminin internalization, compiled mean fluorescence intensity flow cytometry data of 380 % more. In assay [5], the MFI of internalized laminin, flow cytometry, E3D1cre19 cells came out at 26.8 MFI and the change in laminin internalization on re-expression of WT β1 integrin in β1 int-/- cells was found to be 20 % increase.
